# Changes are numbered by the printed parent chain. Numbers in names are those of the source.
# B1: P54AR4-83v2 P24C, NEM conjugate (designed binder, not shown: small tags and cut ends)
# chain: LPAPKNLVVSEVTEDSARLSWDDCWAFYESFLIQYQESEKVGEAIVLTVPGSERSYDLTGLKPGTEYTVSIYGVHNVYKDTNMRGLPLSAIFTT
# modifications: N-ethyl maleimide (NEM) on Cys 24
# B2: P54AR4-83v2 R54C, NEM conjugate (designed binder, not shown: small tags and cut ends)
# chain: B1 chain with C24P, R54C
# modifications: N-ethyl maleimide (NEM) on Cys 54
# B3: P54AR4-83v2 S38C, NEM conjugate (designed binder, not shown: small tags and cut ends)
# chain: B1 chain with C24P, S38C
# modifications: N-ethyl maleimide (NEM) on Cys 38
# B4: P54AR4-83v2 R84C, NEM conjugate (designed binder, not shown: small tags and cut ends)
# chain: B1 chain with C24P, R84C
# modifications: N-ethyl maleimide (NEM) on Cys 84
# B5: P54AR4-83v2 T59C, NEM conjugate (designed binder, not shown: small tags and cut ends)
# chain: B1 chain with C24P, T59C
# modifications: N-ethyl maleimide (NEM) on Cys 59
# B6: P54AR4-83v2 T81C, NEM conjugate (designed binder, not shown: small tags and cut ends)
# chain: B1 chain with C24P, T81C
# modifications: N-ethyl maleimide (NEM) on Cys 81
# B7: P54AR4-83v2 T93C, NEM conjugate (designed binder, not shown: small tags and cut ends)
# chain: B1 chain with C24P, T93C
# modifications: N-ethyl maleimide (NEM) on Cys 93
# B8: P54AR4-83v2 P63C, NEM conjugate (designed binder, not shown: small tags and cut ends)
# chain: B1 chain with C24P, P63C
# modifications: N-ethyl maleimide (NEM) on Cys 63
# B9: P54AR4-83v2 R18C, NEM conjugate (designed binder, not shown: small tags and cut ends)
# chain: B1 chain with R18C, C24P
# modifications: N-ethyl maleimide (NEM) on Cys 18
# B10: P54AR4-83v2 T68C, NEM conjugate (designed binder, not shown: small tags and cut ends)
# chain: B1 chain with C24P, T68C
# modifications: N-ethyl maleimide (NEM) on Cys 68
# notes: not used
# B11: P54AR4-83v2 V8C, NEM conjugate (designed binder, not shown: small tags and cut ends)
# chain: B1 chain with V8C, C24P
# modifications: N-ethyl maleimide (NEM) on Cys 8
# B12: P54AR4-83v2 V74C, NEM conjugate (designed binder, not shown: small tags and cut ends)
# chain: B1 chain with C24P, V74C
# modifications: N-ethyl maleimide (NEM) on Cys 74
# B13: P54AR4-83v2 T13C, NEM conjugate (designed binder, not shown: small tags and cut ends)
# chain: B1 chain with T13C, C24P
# modifications: N-ethyl maleimide (NEM) on Cys 13
# B14: P54AR4-83v2 V77C, NEM conjugate (designed binder, not shown: small tags and cut ends)
# chain: B1 chain with C24P, V77C
# modifications: N-ethyl maleimide (NEM) on Cys 77
# B15: P54AR4-83v2 P87C, NEM conjugate (designed binder, not shown: small tags and cut ends)
# chain: B1 chain with C24P, P87C
# modifications: N-ethyl maleimide (NEM) on Cys 87
# B16: P54AR4-83v2 S20C, NEM conjugate (designed binder, not shown: small tags and cut ends)
# chain: B1 chain with S20C, C24P
# modifications: N-ethyl maleimide (NEM) on Cys 20
# notes: also called 520C
# B17: P54AR4-83v2 S55C, NEM conjugate (designed binder, not shown: small tags and cut ends)
# chain: B1 chain with C24P, S55C
# modifications: N-ethyl maleimide (NEM) on Cys 55
# B18: P54AR4-83v2 S70C, NEM conjugate (designed binder, not shown: small tags and cut ends)
# chain: B1 chain with C24P, S70C
# modifications: N-ethyl maleimide (NEM) on Cys 70
# notes: also called 570C
# B19: P54AR4-83v2 S30C, NEM conjugate (designed binder, not shown: small tags and cut ends)
# chain: B1 chain with C24P, S30C
# modifications: N-ethyl maleimide (NEM) on Cys 30
# notes: also called 530C
# B20: P54AR4-83v2 P50C, NEM conjugate (designed binder, not shown: small tags and cut ends)
# chain: B1 chain with C24P, P50C
# modifications: N-ethyl maleimide (NEM) on Cys 50
# B21: P54AR4-83v2 Q34C, NEM conjugate (designed binder, not shown: small tags and cut ends)
# chain: B1 chain with C24P, Q34C
# modifications: N-ethyl maleimide (NEM) on Cys 34
# B22: P54AR4-83v2 S89C, NEM conjugate (designed binder, not shown: small tags and cut ends)
# chain: B1 chain with C24P, S89C
# modifications: N-ethyl maleimide (NEM) on Cys 89
# B23: P54AR4-83v2 Y72C, NEM conjugate (designed binder, not shown: small tags and cut ends)
# chain: B1 chain with C24P, Y72C
# modifications: N-ethyl maleimide (NEM) on Cys 72
# B24: P54AR4-83v2 S10C, NEM conjugate (designed binder, not shown: small tags and cut ends)
# chain: B1 chain with S10C, C24P
# modifications: N-ethyl maleimide (NEM) on Cys 10
# B25: P54AR4-83v2 S16C, NEM conjugate (designed binder, not shown: small tags and cut ends)
# chain: B1 chain with S16C, C24P
# modifications: N-ethyl maleimide (NEM) on Cys 16
# B26: P54AR4-83v2 V46C, NEM conjugate (designed binder, not shown: small tags and cut ends)
# chain: B1 chain with C24P, V46C
# modifications: N-ethyl maleimide (NEM) on Cys 46
# B27: P54AR4-83v2 V41C, NEM conjugate (designed binder, not shown: small tags and cut ends)
# chain: B1 chain with C24P, V41C
# modifications: N-ethyl maleimide (NEM) on Cys 41
# B28: P54AR4-83v2 Y28C, NEM conjugate (designed binder, not shown: small tags and cut ends)
# chain: B1 chain with C24P, Y28C
# modifications: N-ethyl maleimide (NEM) on Cys 28
# B29: P54AR4-83v2 Y78C, NEM conjugate (designed binder, not shown: small tags and cut ends)
# chain: B1 chain with C24P, Y78C
# modifications: N-ethyl maleimide (NEM) on Cys 78
# B30: P54AR4-83v2 S52C, NEM conjugate (designed binder, not shown: small tags and cut ends)
# chain: B1 chain with C24P, S52C
# modifications: N-ethyl maleimide (NEM) on Cys 52
# B31: P54AR4-83v2 T48C, NEM conjugate (designed binder, not shown: small tags and cut ends)
# chain: B1 chain with C24P, T48C
# modifications: N-ethyl maleimide (NEM) on Cys 48
# B32: P54AR4-83v2 V49C, NEM conjugate (designed binder, not shown: small tags and cut ends)
# chain: B1 chain with C24P, V49C
# modifications: N-ethyl maleimide (NEM) on Cys 49
# B33: P54AR4-83v2 W25C, NEM conjugate (designed binder, not shown: small tags and cut ends)
# chain: B1 chain with C24P, W25C
# modifications: N-ethyl maleimide (NEM) on Cys 25
# B34: P54AR4-83v2 V12C, NEM conjugate (designed binder, not shown: small tags and cut ends)
# chain: B1 chain with V12C, C24P
# modifications: N-ethyl maleimide (NEM) on Cys 12
# B35: P54AR4-83v2 V9C, NEM conjugate (designed binder, not shown: small tags and cut ends)
# chain: B1 chain with V9C, C24P
# modifications: N-ethyl maleimide (NEM) on Cys 9
# Target: T1, EGFR (form used in the assay not stated) (human, UniProt P00533 25-645, limits assumed)
# Experiment: ELISA, NEM conjugate, 100 nM
row,Binder,binding relative to P54AR4-83v2 parent [ratio]
1,B1,0.85
2,B2,1.01
3,B3,0.93
4,B4,1.04
5,B5,1.04
6,B6,0.9
7,B7,1.05
8,B8,1.02
9,B9,1.05
10,B10,1.04
11,B11,1.03
12,B12,1.01
13,B13,1.04
14,B14,0
15,B15,0.93
16,B16,1.05
17,B17,0
18,B18,1.01

row,Binder,binding relative to P54AR4-83v2 parent [ratio]
1,B19,1.02
2,B20,1.05
3,B21,1.03
4,B22,1.02
5,B23,1
6,B24,1.07
7,B25,1.05
8,B26,1.01
9,B27,0.99
10,B28,0.01
11,B29,0.63
12,B30,1.03
13,B31,1
14,B32,1.01
15,B33,0.64
16,B34,1.06
17,B35,1.03

# Target: T1, EGFR (form used in the assay not stated)
# Experiment: ELISA, NEM conjugate, 500 nM
row,Binder,binding relative to P54AR4-83v2 parent [ratio]
1,B1,0.83
2,B2,0.93
3,B3,0.82
4,B4,0.98
5,B5,0.93
6,B6,1.02
7,B7,1.04
8,B8,0.92
9,B9,0.94
10,B10,0.95
11,B11,0.9
12,B12,0.95
13,B13,0.9
14,B14,0.03
15,B15,0.91
16,B16,0.91
17,B17,0.11
18,B18,0.93

row,Binder,binding relative to P54AR4-83v2 parent [ratio]
1,B19,0.9
2,B20,0.97
3,B21,0.94
4,B22,1.04
5,B23,0.93
6,B24,0.96
7,B25,0.63
8,B26,0.9
9,B27,0.95
10,B28,0.09
11,B29,0.68
12,B30,0.93
13,B31,0.93
14,B32,0.98
15,B33,0.7
16,B34,0.93
17,B35,0.93

# Target: T1, EGFR (form used in the assay not stated)
# Experiment: ELISA, NEM conjugate, 10 nM
row,Binder,binding relative to P54AR4-83v2 parent [ratio]
1,B1,0.45
2,B2,0.89
3,B3,0.8
4,B4,0.91
5,B5,0.83
6,B6,0.5
7,B7,0.96
8,B8,0.95
9,B9,0.86
10,B10,0.83
11,B11,0.96
12,B12,0.76
13,B13,0.87
14,B14,0.03
15,B15,0.73
16,B16,0.81
17,B17,0
18,B18,0.86

row,Binder,binding relative to P54AR4-83v2 parent [ratio]
1,B19,0.9
2,B20,0.91
3,B21,0.89
4,B22,0.97
5,B23,0.93
6,B24,0.83
7,B25,0.88
8,B26,0.61
9,B27,0.92
10,B28,0
11,B29,0.31
12,B30,0.78
13,B31,0.88
14,B32,0.96
15,B33,0.38
16,B34,0.87
17,B35,0.94
